{"source": "paper PMC5837818", "about": "(Molecular cell, 2018)", "biological_target": "E. coli core RNAP enzyme (E. coli, UniProt P0A7Z4 1-329; P0A8V2 1-1342; P0A8T7 1-1407; P0A800 1-91)", "sequence (P0A7Z4 whole entry, chain 1 of 4)": "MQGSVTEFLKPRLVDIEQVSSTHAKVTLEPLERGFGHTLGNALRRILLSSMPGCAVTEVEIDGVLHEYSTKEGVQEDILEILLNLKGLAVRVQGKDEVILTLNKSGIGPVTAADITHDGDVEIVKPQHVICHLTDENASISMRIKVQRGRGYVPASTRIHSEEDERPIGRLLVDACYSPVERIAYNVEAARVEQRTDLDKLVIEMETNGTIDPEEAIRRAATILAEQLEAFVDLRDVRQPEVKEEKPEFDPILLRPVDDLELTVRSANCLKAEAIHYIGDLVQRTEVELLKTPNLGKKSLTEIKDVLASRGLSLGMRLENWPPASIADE", "sequence (P0A8V2 whole entry, chain 2 of 4)": "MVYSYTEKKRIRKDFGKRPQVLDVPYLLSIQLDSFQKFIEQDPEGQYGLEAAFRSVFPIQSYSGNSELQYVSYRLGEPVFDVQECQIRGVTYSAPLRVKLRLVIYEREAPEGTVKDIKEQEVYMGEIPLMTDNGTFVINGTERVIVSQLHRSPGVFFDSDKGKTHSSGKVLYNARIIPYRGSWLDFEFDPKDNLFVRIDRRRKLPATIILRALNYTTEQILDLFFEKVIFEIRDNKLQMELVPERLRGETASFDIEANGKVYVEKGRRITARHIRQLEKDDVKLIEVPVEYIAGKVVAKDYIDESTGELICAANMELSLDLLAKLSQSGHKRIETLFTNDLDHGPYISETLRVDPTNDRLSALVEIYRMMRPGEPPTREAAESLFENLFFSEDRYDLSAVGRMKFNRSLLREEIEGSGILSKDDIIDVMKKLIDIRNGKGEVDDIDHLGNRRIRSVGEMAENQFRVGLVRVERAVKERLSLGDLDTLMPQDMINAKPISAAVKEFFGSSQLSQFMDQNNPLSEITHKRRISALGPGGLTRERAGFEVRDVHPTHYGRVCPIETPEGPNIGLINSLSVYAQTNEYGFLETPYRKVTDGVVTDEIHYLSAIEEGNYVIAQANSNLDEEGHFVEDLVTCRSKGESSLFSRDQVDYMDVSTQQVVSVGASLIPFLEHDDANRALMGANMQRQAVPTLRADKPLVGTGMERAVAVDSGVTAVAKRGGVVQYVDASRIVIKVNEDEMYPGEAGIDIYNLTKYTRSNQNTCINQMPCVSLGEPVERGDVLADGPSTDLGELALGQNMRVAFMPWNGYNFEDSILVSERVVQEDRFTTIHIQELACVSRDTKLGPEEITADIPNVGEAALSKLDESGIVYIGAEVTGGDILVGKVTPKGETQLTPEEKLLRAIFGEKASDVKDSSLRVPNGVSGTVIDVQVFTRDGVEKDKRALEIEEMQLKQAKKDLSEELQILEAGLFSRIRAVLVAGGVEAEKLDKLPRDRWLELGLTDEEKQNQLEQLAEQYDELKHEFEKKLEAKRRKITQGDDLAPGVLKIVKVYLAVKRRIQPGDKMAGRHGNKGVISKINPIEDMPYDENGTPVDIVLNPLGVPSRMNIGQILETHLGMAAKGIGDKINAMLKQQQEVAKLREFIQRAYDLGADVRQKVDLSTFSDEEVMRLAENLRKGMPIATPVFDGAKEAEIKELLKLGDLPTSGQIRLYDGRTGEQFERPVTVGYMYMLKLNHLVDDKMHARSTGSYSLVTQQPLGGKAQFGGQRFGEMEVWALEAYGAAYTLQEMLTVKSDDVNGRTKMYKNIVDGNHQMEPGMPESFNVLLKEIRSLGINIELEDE", "sequence (P0A8T7 whole entry, chain 3 of 4)": "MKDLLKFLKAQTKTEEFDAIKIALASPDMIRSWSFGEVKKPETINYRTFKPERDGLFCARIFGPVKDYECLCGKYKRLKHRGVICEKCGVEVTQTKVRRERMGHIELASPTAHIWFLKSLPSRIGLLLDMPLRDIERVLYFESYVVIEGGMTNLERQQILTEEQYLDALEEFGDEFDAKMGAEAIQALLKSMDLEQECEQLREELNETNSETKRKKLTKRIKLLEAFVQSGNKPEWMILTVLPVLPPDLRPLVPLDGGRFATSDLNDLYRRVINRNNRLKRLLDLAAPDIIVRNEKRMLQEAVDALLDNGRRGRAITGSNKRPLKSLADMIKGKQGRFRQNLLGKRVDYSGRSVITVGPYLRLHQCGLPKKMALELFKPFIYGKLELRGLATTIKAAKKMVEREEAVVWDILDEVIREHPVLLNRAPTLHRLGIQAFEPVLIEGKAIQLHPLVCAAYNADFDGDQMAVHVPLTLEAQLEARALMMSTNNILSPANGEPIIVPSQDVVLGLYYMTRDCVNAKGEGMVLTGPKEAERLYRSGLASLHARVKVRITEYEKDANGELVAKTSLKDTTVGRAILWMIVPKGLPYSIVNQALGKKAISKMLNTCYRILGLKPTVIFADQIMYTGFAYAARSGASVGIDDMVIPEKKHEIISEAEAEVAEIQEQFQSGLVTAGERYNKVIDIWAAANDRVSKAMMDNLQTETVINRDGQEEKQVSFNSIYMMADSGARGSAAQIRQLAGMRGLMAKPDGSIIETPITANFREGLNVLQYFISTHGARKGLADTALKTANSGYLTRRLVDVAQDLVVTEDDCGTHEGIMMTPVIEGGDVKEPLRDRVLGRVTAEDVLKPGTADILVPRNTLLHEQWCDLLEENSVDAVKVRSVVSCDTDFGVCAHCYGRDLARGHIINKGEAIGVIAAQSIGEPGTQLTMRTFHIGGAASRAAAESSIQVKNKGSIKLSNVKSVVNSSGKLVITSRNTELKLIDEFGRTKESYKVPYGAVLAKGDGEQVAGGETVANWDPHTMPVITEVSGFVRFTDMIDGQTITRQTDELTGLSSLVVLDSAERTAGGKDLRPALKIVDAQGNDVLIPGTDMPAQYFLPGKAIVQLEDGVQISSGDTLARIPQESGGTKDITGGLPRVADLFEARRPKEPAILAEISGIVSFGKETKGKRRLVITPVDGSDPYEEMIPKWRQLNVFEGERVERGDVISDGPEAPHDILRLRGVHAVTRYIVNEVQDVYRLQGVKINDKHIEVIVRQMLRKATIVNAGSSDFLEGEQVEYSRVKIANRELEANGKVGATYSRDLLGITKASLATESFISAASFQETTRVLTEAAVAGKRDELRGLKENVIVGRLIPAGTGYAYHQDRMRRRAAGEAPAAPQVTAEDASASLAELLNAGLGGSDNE", "sequence (P0A800 whole entry, chain 4 of 4)": "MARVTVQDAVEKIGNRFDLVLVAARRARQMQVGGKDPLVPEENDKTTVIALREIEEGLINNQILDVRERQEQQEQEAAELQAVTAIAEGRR", "assay": "fluorescence polarisation", "data": [{"binder": "BODIPY FL-labelled DksA with a cysteine substitution at position 35 (A35C) (natural protein, E. coli, BODIPY FL (maleimide) conjugated to the cysteine at position 35) MQEGQNRKTSSLSILAIAGVEPYQEKPGEEYMNECQLAHFRRILEAWRNQLRDEVDRTVTHMQDEAANFPDPVDRAAQEEEFSLELRNRDRERKLIKKIEKTLKKVEDEDFGYCESCGVEIGIRRLEARPTADLCIDCKTLAEIREKQMAG", "values": [{"measurement": "Kd", "value": 112, "unit": "nM"}]}]}
